{"source": "paper PMC5676692", "target": "integrin αVβ6 heterodimer (integrin alpha-V, ITGAV, and integrin beta-6, ITGB6) (human (endogenous in HEK293T)) (UniProt P18564)", "sequence (P18564 whole entry, looked up, the tested form may be a part, one chain of several)": "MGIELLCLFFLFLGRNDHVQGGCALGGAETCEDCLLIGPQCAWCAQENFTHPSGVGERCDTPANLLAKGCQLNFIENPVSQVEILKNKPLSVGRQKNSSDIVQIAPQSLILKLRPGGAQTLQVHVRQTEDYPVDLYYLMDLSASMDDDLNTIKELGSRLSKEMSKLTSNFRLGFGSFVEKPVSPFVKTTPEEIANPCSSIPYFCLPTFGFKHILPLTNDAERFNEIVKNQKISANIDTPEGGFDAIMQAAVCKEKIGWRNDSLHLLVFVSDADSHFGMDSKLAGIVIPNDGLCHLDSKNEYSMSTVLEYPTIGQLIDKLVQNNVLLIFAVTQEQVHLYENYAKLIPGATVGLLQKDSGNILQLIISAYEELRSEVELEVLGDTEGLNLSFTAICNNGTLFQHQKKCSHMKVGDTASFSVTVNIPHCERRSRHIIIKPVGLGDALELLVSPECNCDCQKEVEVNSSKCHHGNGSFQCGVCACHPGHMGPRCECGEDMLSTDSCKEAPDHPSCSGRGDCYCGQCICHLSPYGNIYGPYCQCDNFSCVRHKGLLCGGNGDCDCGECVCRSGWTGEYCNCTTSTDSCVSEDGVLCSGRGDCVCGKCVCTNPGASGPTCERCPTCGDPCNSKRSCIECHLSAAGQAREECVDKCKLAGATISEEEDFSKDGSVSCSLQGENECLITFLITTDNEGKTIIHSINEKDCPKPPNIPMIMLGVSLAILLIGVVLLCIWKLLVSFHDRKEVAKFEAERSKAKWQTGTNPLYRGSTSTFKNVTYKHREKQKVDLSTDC", "data": [{"substance": "control AAV9 viral particle (unmodified AAV9 capsid) (from UniProt Q6JC40 1-736; Q6JC40 138-736; Q6JC40 203-736) (complex)", "values": [{"measurement": "AAV9-GFP transduction (GFP+ cells after 24 h) of HEK293T, Hela or U87 cells pre-treated for 2 h with 20 µg/ml of a mouse anti-human αVβ6 functional blocking antibody, against PBS control", "result": 50, "unit": "%"}]}]}
